In FireProtDB (doi:10.1002/pro.342):

B1: Regulatory protein rop, P03051 (parent)
chain: MTKQEKTALNMARFIRSQTLTLLEKLNELDADEQADICESLHDHADELYRSCLARFGDDGENL

Variants of: B1
Conditions: Escherichia coli, pH 6.3, CD, Phosphate 50 mM, NaCl 300 mM, structure 1ROP, whole UniProt chain shown; for Tm / change of melting temperature, mutant - wild type (higher = more stable) / heat capacity change of unfolding / unfolding enthalpy (van 't Hoff): Thermal

## MTKQEKTALNMARFIRSQTLTLLEKLNELDADEQADIAESLHDHADELYRSALARFGDDGENL [C38A C52A]
  Tm: 56 °C
  change of melting temperature, mutant - wild type (higher = more stable): -14 °C
  heat capacity change of unfolding: 1.1 kcal/mol/K
  unfolding enthalpy (van 't Hoff): 65 kcal/mol
Urea
  ddG of mutation (higher = less stable): 8.3 kcal/mol
  denaturant m value: 0.9 kcal/mol/M
  denaturant midpoint (higher = more stable): 2.3 M
  unfolding free energy: 7.7 kcal/mol

## MTKQEKTALNMARFIRSQTLTLLEKLNELDADEQADIAESLHDHADELYRSVLARFGDDGENL [C38A C52V]
  Tm: 74 °C
  change of melting temperature, mutant - wild type (higher = more stable): 4 °C
  heat capacity change of unfolding: 1.1 kcal/mol/K
  unfolding enthalpy (van 't Hoff): 65 kcal/mol
Urea
  denaturant m value: 1.3 kcal/mol/M
  denaturant midpoint (higher = more stable): 4.1 M
  unfolding free energy: 11 kcal/mol
